Data published in publication PMC7156744, “CdbA is a DNA-binding protein and c-di-GMP receptor important for nucleoid organization and segregation in Myxococcus xanthus” (Nature Communications, 2020).
Values belong to the compound of their own block, whether it stands above or below them.

Legend:
CdbA = target: T1, CdbA (Myxococcus xanthus, UniProt Q1D489); experiment: ITC (also DRaCALA, SEC, HDX-MS; EMSA shows inhibition of DNA binding)
T1 construct: gene MXAN_4361; full-length CdbA-His6 (67 amino acids), tetramer

[1] = target: T2, CdbA-His6 (Myxococcus xanthus DK1622) (UniProt Q1D489); experiment: EMSA; conditions: 10x buffer: 380 mM HEPES, 380 mM NaCl, 50 mM MgCl2, 50% glycerol, 10 mM DTT, 15 ng/ul poly(dI-dC), 50 ng probe, 30 C 30 min, 10% PAGE 1x TBE 4 C, pH not …
T2 sequence: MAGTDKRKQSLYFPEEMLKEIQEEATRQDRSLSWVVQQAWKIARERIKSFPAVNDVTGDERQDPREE

[2] = target: CdbA-His6 (C-terminally His6-tagged CdbA, MXAN_4361) (Myxococcus xanthus); experiment: crystal structure; crystal form one (dimeric form) of full-length CdbA-His6, 0.1 M MgCl2, 0.1 M HEPES-NaOH pH 7.0, 15% PEG 4000; SAD phasing with a Pt derivative; residues 5-52 traced
[3] = target: CdbA-His6 (C-terminally His6-tagged CdbA, MXAN_4361) (Myxococcus xanthus); experiment: as above; remark: listed apart in the source
[4] = target: CdbA-His6 (C-terminally His6-tagged CdbA, MXAN_4361) (Myxococcus xanthus); experiment: SEC; analytical SEC, 200 µM CdbA wild-type or variant without c-di-GMP, Superdex S200 Increase 10/300 GL, SEC buffer (20 mM HEPES-Na pH 7.5, 200 mM NaCl, 20 mM MgCl2, 20 mM KCl), 4 °C; oligomer size from apparent molecular mass
[5] = target: CdbA-His6 (C-terminally His6-tagged CdbA, MXAN_4361) (Myxococcus xanthus); experiment: SEC; analytical SEC, 200 µM CdbA incubated with 200 µM c-di-GMP for 1 minute at 25 °C, Superdex S200 Increase 10/300 GL, SEC buffer, 4 °C; oligomer size from apparent molecular mass
[6] = target: CdbA-His6 (C-terminally His6-tagged CdbA, MXAN_4361) (Myxococcus xanthus); experiment: crystal structure; crystal form two (tetrameric form) of full-length CdbA-His6, 0.1 M sodium malonate, 0.1 M HEPES-NaOH pH 7.0, 30% polyacrylic acid sodium salt 2100; molecular replacement; three copies in the asymmetric unit
[7] = target: CdbA^K8A/S10A-His6 (Myxococcus xanthus); experiment: SEC; analytical SEC, 200 µM CdbA wild-type or variant without c-di-GMP, Superdex S200 Increase 10/300 GL, SEC buffer (20 mM HEPES-Na pH 7.5, 200 mM NaCl, 20 mM MgCl2, 20 mM KCl), 4 °C; oligomer size from apparent molecular mass
[8] = target: CdbA^R27A/R30A-His6 (Myxococcus xanthus); experiment: as above
[9] = system: CdbA-His6 (Myxococcus xanthus DK1622); experiment: EMSA; conditions: 10x buffer: 380 mM HEPES, 380 mM NaCl, 50 mM MgCl2, 50% glycerol, 10 mM DTT, 15 ng/ul poly(dI-dC), 50 ng probe, 30 C 30 min, 10% PAGE 1x TBE 4 C, pH not …

Kd (CdbA): ~0.083 µM
Compound: Nc1nc2c(ncn2[C@@H]2O[C@@H]3CO[P@](=O)(O)O[C@H]4[C@@H](O)[C@H](n5cnc6c(=O)[nH]c(N)nc65)O[C@@H]4CO[P@](=O)(O)O[C@H]3[C@H]2O)c(=O)[nH]1 [c-di-GMP]

Compound: ACTTGGGTCTCCGGGGCGGATTCGGGGTGACGACCTGAACACACCTGGGCCGTTATCCGACAGACTCCCAAGTGGGTCAACGGTTTCCAAGGACTCATTCCGAGGTCGCACGGTCCGTCCCCGTGCTCGTCCAGTTGCACGTAAGCTGTGCAACCATGCGCGAAAAAGGAAACGCCCCGGACTCCACGAGGAAGTCCGGGGCGCTTCGGAAAGAGGGACCGCCTAGAGAAATCTCCAGGCGGGCCCGTGG (double strand) [cdbAB promoter]
Kd [1]: 0.9 µM

stoichiometry N [2]: 2
stoichiometry N [3]: 4
stoichiometry N [4]: 4
stoichiometry N [5]: 4
stoichiometry N [6]: 4
Compound: CdbA-His6 (C-terminally His6-tagged CdbA, MXAN_4361) (natural protein)

stoichiometry N [7]: 4
Compound: CdbA^K8A/S10A-His6 (natural protein)

stoichiometry N [8]: 4
Compound: CdbA^R27A/R30A-His6 (natural protein)

Compound: GACACACCTTCTCCGAGCGGCTTGCGGTGTTCGGGGGACTCGGGCTTGCGCTCGGGTTCGGCGCGGGCCTGCGCGGAGACGCGGAAGCCTTCACTGGGGTTCAGTGGATCTTCCCGGTCGGATCGAAGTGAATTTCTTGCGATCAGACCGACTTGTGAGAATGTACGCGCATCTACAGGAGGTCGCGCACATGGACATGAATCCCCGTCTTACCTCAGTGGTCTTCCGGCTCAACCGCGAGAAGCTCGAC (double strand) [MXAN_4058 promoter, two repeats mutated]
Kd [1]: 2.5 µM

Compound: GACACACCTTCTCCGAGCGGCTTGCGGTGTTCGGGGGACTCGGGCTTGCGCTCGGGTTCGGCGCGGGCCTGCGCGGAGACGCGGAAGCCTTCACTGGGGTTCAGTGGATCTTCCCGGTCGGATCGAAGTGAATTTCTTGCGATCAGACCGACTTGTGAGAATGTGTGCGCATCTACAGGAGGTCGCGCACATGGACATGAATCCCCGTCTTACCTCAGTGGTCTTCCGGCTCAACCGCGAGAAGCTCGAC (double strand) [MXAN_4058 promoter, one repeat mutated]
Kd [1]: 1.1 µM

Compound: GACACACCTTCTCCGAGCGGCTTGCGGTGTTCGGGGGACTCGGGCTTGCGCTCGGGTTCGGCGCGGGCCTGCGCGGAGACGCGGAAGCCTTCACTGGGGTTCAGTGGATCTTCCCGGTCGGATCGAAGTGAATTTCTTGCGATCAGACCGACTTGTGAGAATGTGTGCGCATCTGTAGGAGGTCGCGCACATGGACATGAATCCCCGTCTTACCTCAGTGGTCTTCCGGCTCAACCGCGAGAAGCTCGAC (double strand) [peak rank #1 fragment (MXAN_4058 promoter), WT]
Kd [1]: 0.4 µM

Compound: cdbAB promoter
Kd [9]: 0.9 µM

Compound: no-peak control fragment
Kd [9]: 4 µM

Compound: peak rank #1 fragment (MXAN_4058 promoter), WT
Kd [9]: 0.4 µM
